Where two headings read alike, the source gives them in different places.
How the values were obtained:
[1] = Ex vivo biodistribution in PC-3 tumor-bearing mice; settings: male, mouse, iv, total radioactivity, mean ± SD, n = 4; for tissue uptake at 1 h: NOD.Cg-Rag1^tm1Mom Il2rg^tm1Wjl/SzJ (NRG); for tissue to tissue ratio at 1 h: NOD.Cg-Rag1tm1Mom Il2rgtm1Wjl/SzJ (NRG)
Description: Biodistribution studies were conducted for ^68Ga-labeled SB3, LW02075 and LW02050 in PC-3 tumor-bearing mice (n = 4).
(§1) Imaging and biodistribution studies were performed on male NOD.Cg-Rag1^tm1Mom Il2rg^tm1Wjl/SzJ (NRG) mice following previously published procedures. The experiments were conducted following the guidelines established by the Canadian Council on Animal Care and approved by Animal Ethics Committee of the University of British Columbia. The mice were sedated (2.5% isoflurane in oxygen) and injected with 5 × 10^6 PC-3 cells (100 µL; 1:1 PBS/Matrigel) subcutaneously behind the left shoulder. The tumor-bearing mice were used for PET/CT imaging and biodistribution studies when the tumor grew to 5–8 mm in diameter.
For biodistribution studies, the mice were injected with the radiotracer (~2–4 MBq), as described above. Blocking of [^68Ga]Ga-LW02075 and [^68Ga]Ga-LW02050 was conducted by co-injection with 100 μg nonradioactive Ga-LW02075 and Ga-LW02050, respectively, through a lateral caudal tail vein under anaesthesia. At 1 h post injection, the mice were sedated and euthanized by CO2 inhalation. Blood was collected via cardiac puncture, and organs/tissues of interest were collected, weighed, and counted on a Perkin Elmer (Waltham, MA, USA) Wizard2 2480 automatic gamma counter.

physchem = settings: n-octanol/DPBS, pH 7.4
Description: LogD7.4 values of [^68Ga]Ga-LW02075, [^68Ga]Ga-LW02050, and [^68Ga]Ga-SB3 were measured via the shake flask method. An aliquot of the ^68Ga-labeled tracer (~1.85 MBq) was added to a 15 mL falcon tube containing 3 mL of n-octanol and 3 mL of DPBS (pH 7.4) followed by 1 min of vortex (n = 3). After that, the mixture was centrifuged at 5000 rpm for 10 min, and samples of the n-octanol (1 mL) and buffer (1 mL) layers were collected and counted on a Perkin Elmer (Waltham, MA, USA) Wizard2 2480 automatic gamma counter. The LogD7.4 values of [^68Ga]Ga-LW02075, [^68Ga]Ga-LW02050, and [^68Ga]Ga-SB3 were calculated following the equation: LogD7.4 = log10[(counts in the n-octanol phase)/(counts in the buffer phase)].

PC-3 tumor xenografts = test: PET/CT imaging in mice bearing PC-3 tumor xenografts; type: in vivo; settings: 1 h post injection, mice
Description: as §1
PET/CT imaging experiments were performed on a Siemens (Knoxville, TN, USA) Inveon micro PET/CT scanner. Each tumor-bearing mouse was injected with ~3–6 MBq of ^68Ga-labeled tracer through a lateral caudal tail vein under anaesthesia. At around 50 min post injection, a 10 min CT scan was obtained first for localization and attenuation correction after segmentation for reconstructing the PET image, followed by a 10 min static PET scan.

CC(C)C[C@H](NC(=O)[C@H](Cc1c[nH]cn1)NC(=O)CNC(=O)[C@@H](NC(=O)[C@H](C)NC(=O)[C@H](Cc1c[nH]c2ccccc12)NC(=O)[C@H](CCC(N)=O)NC(=O)[C@@H](Cc1ccccc1)NC(=O)COCC(=O)Nc1ccc(CNC(=O)CN2CCN(CC(=O)O)CCN(CC(=O)O)CCN(CC(=O)O)CC2)cc1)C(C)C)C(=O)NO [[^68Ga]Ga-LW02075, [^68Ga]Ga-DOTA-pABzA-DIG-D-Phe-Gln-Trp-Ala-Val-Gly-His-Leu-NHOH, metal not drawn] gave a tissue uptake at 1 h ([1]; PC-3 tumor, 1 h blocked: co-injected with 100 µg nonradioactive Ga-complexed standard, read-out: PC-3 tumor uptake, blocked) of 1.83 ± 0.22 %ID/g, a tissue uptake at 1 h ([1]; PC-3 tumor, 1 h post injection, read-out: PC-3 tumor uptake) of 3.97 ± 1.71 %ID/g and a tissue uptake at 1 h ([1]; adrenal glands, 1 h blocked: co-injected with 100 µg nonradioactive Ga-complexed standard, read-out: Adrenal glands uptake, blocked) of 1.02 ± 0.59 %ID/g. For the same molecule, the tissue uptake at 1 h ([1]; adrenal glands, 1 h post injection, read-out: Adrenal glands uptake) was 4.42 ± 2.41 %ID/g, the tissue uptake at 1 h ([1]; blood, 1 h blocked: co-injected with 100 µg nonradioactive Ga-complexed standard, read-out: Blood uptake, blocked) was 1.15 ± 0.26 %ID/g and the tissue uptake at 1 h ([1]; blood, 1 h post injection, read-out: Blood uptake) was 0.76 ± 0.41 %ID/g. It also gave a tissue uptake at 1 h ([1]; bone, 1 h blocked: co-injected with 100 µg nonradioactive Ga-complexed standard, read-out: Bone uptake, blocked) of 0.21 ± 0.07 %ID/g, a tissue uptake at 1 h ([1]; bone, 1 h post injection, read-out: Bone uptake) of 0.2 ± 0.2 %ID/g and a tissue uptake at 1 h ([1]; brain, 1 h blocked: co-injected with 100 µg nonradioactive Ga-complexed standard, read-out: Brain uptake, blocked) of 0.03 ± 0.01 %ID/g. It also gave a tissue uptake at 1 h ([1]; brain, 1 h post injection, read-out: Brain uptake) of 0.03 ± 0.01 %ID/g, a tissue uptake at 1 h ([1]; fat, 1 h blocked: co-injected with 100 µg nonradioactive Ga-complexed standard, read-out: Fat uptake, blocked) of 0.12 ± 0.02 %ID/g and a tissue uptake at 1 h ([1]; fat, 1 h post injection, read-out: Fat uptake) of 0.08 ± 0.05 %ID/g. The tissue uptake at 1 h ([1]; heart, 1 h blocked: co-injected with 100 µg nonradioactive Ga-complexed standard, read-out: Heart uptake, blocked) was 0.34 ± 0.04 %ID/g, the tissue uptake at 1 h ([1]; heart, 1 h post injection, read-out: Heart uptake) was 0.24 ± 0.13 %ID/g and the tissue uptake at 1 h ([1]; kidneys, 1 h blocked: co-injected with 100 µg nonradioactive Ga-complexed standard, read-out: Kidneys uptake, blocked) was 4.98 ± 1.59 %ID/g. The tissue uptake at 1 h ([1]; kidneys, 1 h post injection, read-out: Kidneys uptake) was 3.11 ± 1.18 %ID/g, the tissue uptake at 1 h ([1]; large intestine, 1 h blocked: co-injected with 100 µg nonradioactive Ga-complexed standard, read-out: Large intestine uptake, blocked) was 0.4 ± 0.17 %ID/g and the tissue uptake at 1 h ([1]; large intestine, 1 h post injection, read-out: Large intestine uptake) was 1.71 ± 0.47 %ID/g. For the same molecule, the tissue uptake at 1 h ([1]; liver, 1 h blocked: co-injected with 100 µg nonradioactive Ga-complexed standard, read-out: Liver uptake, blocked) was 5.92 ± 1.69 %ID/g, the tissue uptake at 1 h ([1]; liver, 1 h post injection, read-out: Liver uptake) was 4.14 ± 1.5 %ID/g and the tissue uptake at 1 h ([1]; lungs, 1 h blocked: co-injected with 100 µg nonradioactive Ga-complexed standard, read-out: Lungs uptake, blocked) was 0.94 ± 0.17 %ID/g. It also gave a tissue uptake at 1 h ([1]; lungs, 1 h post injection, read-out: Lungs uptake) of 0.75 ± 0.41 %ID/g, a tissue uptake at 1 h ([1]; muscle, 1 h blocked: co-injected with 100 µg nonradioactive Ga-complexed standard, read-out: Muscle uptake, blocked) of 0.27 ± 0.14 %ID/g and a tissue uptake at 1 h ([1]; muscle, 1 h post injection, read-out: Muscle uptake) of 0.21 ± 0.18 %ID/g. The tissue uptake at 1 h ([1]; pancreas, 1 h blocked: co-injected with 100 µg nonradioactive Ga-complexed standard, read-out: Pancreas uptake, blocked) was 1.55 ± 0.83 %ID/g, the tissue uptake at 1 h ([1]; pancreas, 1 h post injection, read-out: Pancreas uptake) was 17.8 ± 5.24 %ID/g and the tissue uptake at 1 h ([1]; small intestine, 1 h blocked: co-injected with 100 µg nonradioactive Ga-complexed standard, read-out: Small intestine uptake, blocked) was 5.62 ± 1.86 %ID/g. The tissue uptake at 1 h ([1]; small intestine, 1 h post injection, read-out: Small intestine uptake) was 6.72 ± 1.94 %ID/g, the tissue uptake at 1 h ([1]; spleen, 1 h blocked: co-injected with 100 µg nonradioactive Ga-complexed standard, read-out: Spleen uptake, blocked) was 0.35 ± 0.12 %ID/g and the tissue uptake at 1 h ([1]; spleen, 1 h post injection, read-out: Spleen uptake) was 0.26 ± 0.13 %ID/g. The tissue uptake at 1 h ([1]; stomach, 1 h blocked: co-injected with 100 µg nonradioactive Ga-complexed standard, read-out: Stomach uptake, blocked) was 0.73 ± 0.29 %ID/g, the tissue uptake at 1 h ([1]; stomach, 1 h post injection, read-out: Stomach uptake) was 1.23 ± 0.22 %ID/g and the tissue uptake at 1 h ([1]; testes, 1 h blocked: co-injected with 100 µg nonradioactive Ga-complexed standard, read-out: Testes uptake, blocked) was 0.3 ± 0.06 %ID/g. It also gave a tissue uptake at 1 h ([1]; testes, 1 h post injection, read-out: Testes uptake) of 0.17 ± 0.1 %ID/g, a tissue to tissue ratio at 1 h ([1]; tumor and bone, 1 h blocked: co-injected with 100 µg nonradioactive Ga-complexed standard, read-out: Tumor/bone uptake ratio, blocked) of 9.3 ± 2.39 and a tissue to tissue ratio at 1 h ([1]; tumor and bone, 1 h post injection, read-out: Tumor/bone uptake ratio) of 30.6 ± 18.9. For the same molecule, the tissue to tissue ratio at 1 h ([1]; tumor and kidney, 1 h blocked: co-injected with 100 µg nonradioactive Ga-complexed standard, read-out: Tumor/kidney uptake ratio, blocked) was 0.39 ± 0.09, the tissue to tissue ratio at 1 h ([1]; tumor and kidney, 1 h post injection, read-out: Tumor/kidney uptake ratio) was 1.28 ± 0.33 and the tissue to tissue ratio at 1 h ([1]; tumor and muscle, 1 h blocked: co-injected with 100 µg nonradioactive Ga-complexed standard, read-out: Tumor/muscle uptake ratio, blocked) was 7.85 ± 3.13. The tissue to tissue ratio at 1 h ([1]; tumor and muscle, 1 h post injection, read-out: Tumor/muscle uptake ratio) was 24.8 ± 9.99, the tissue to tissue ratio at 1 h ([1]; tumor and pancreas, 1 h blocked: co-injected with 100 µg nonradioactive Ga-complexed standard, read-out: Tumor/pancreas uptake ratio, blocked) was 1.46 ± 0.76 and the tissue to tissue ratio at 1 h ([1]; tumor and pancreas, 1 h post injection, read-out: Tumor/pancreas uptake ratio) was 0.22 ± 0.05. It also gave a tissue to tissue ratio at 1 h ([1]; tumor and whole blood, 1 h blocked: co-injected with 100 µg nonradioactive Ga-complexed standard, read-out: Tumor/blood uptake ratio, blocked) of 1.65 ± 0.4, a tissue to tissue ratio at 1 h ([1]; tumor and whole blood, 1 h post injection, read-out: Tumor/blood uptake ratio) of 5.51 ± 1.49 and a logD (physchem) of -2.09 ± 0.05. The “Excretion pathway in PET images” value (PC-3 tumor xenografts) was “excreted primarily through the renal pathway” and the “Pancreas in PET images” value (PC-3 tumor xenografts) was “high pancreas uptake”.

— PMC11243334, “Synthesis and Evaluation of the First ^68Ga-Labeled C-Terminal Hydroxamate-Derived Gastrin-Releasing Peptide Receptor-Targeted Tracers for Cancer Imaging with Positron Emission Tomography” (Molecules, 2024)
